These results are taken from article PMC3121528 (The Journal of Biological Chemistry, 2011).

Series [1] has as its target FLAG-tagged B14 F130K (vaccinia virus strain Western Reserve) (UniProt P24772). As to the kind of experiment: co-IP.
For series [2], the target named is FLAG-tagged B14 Y35E (vaccinia virus strain Western Reserve), P24772. Briefly: co-IP. To be noted: remark: other sources report otherwise.
The series “SEC-MALS” concerns the molecule itself. Briefly: SEC-MALS. For orientation: SEC sorts molecules by how far they enter the pores of the column.

In turn, “N-terminally HA-tagged IκB kinase β (IKKβ) (from UniProt O14920 1-756) (enzyme)” showed a co-precipitated IKKβ relative to wild-type B14 (% of wild-type B14) in series [1] of 1.

B1: N-terminally HA-tagged IκB kinase β (IKKβ), O14920 1-756 (enzyme)
chain: MSWSPSLTTQTCGAWEMKERLGTGGFGNVIRWHNQETGEQIAIKQCRQELSPRNRERWCLEIQIMRRLTHPNVVAARDVPEGMQNLAPNDLPLLAMEYCQGGDLRKYLNQFENCCGLREGAILTLLSDIASALRYLHENRIIHRDLKPENIVLQQGEQRLIHKIIDLGYAKELDQGSLCTSFVGTLQYLAPELLEQQKYTVTVDYWSFGTLAFECITGFRPFLPNWQPVQWHSKVRQKSEVDIVVSEDLNGTVKFSSSLPYPNNLNSVLAERLEKWLQLMLMWHPRQRGTDPTYGPNGCFKALDDILNLKLVHILNMVTGTIHTYPVTEDESLQSLKARIQQDTGIPEEDQELLQEAGLALIPDKPATQCISDGKLNEGHTLDMDLVFLFDNSKITYETQISPRPQPESVSCILQEPKRNLAFFQLRKVWGQVWHSIQTLKEDCNRLQQGQRAAMMNLLRNNSCLSKMKNSMASMSQQLKAKLDFFKTSIQIDLEKYSEQTEFGITSDKLLLAWREMEQAVELCGRENEVKLLVERMMALQTDIVDLQRSPMGRKQGGTLDDLEEQARELYRRLREKPRDQRTEGDSQEMVRLLLQAIQSFEKKVRVIYTQLSKTVVCKQKALELLPKVEEVVSLMNEDEKTVVRLQEKRQKELWNLLKIACSKVRGPVSGSPDSMNASRLSQPGQLMSQPSTASNSLPEPAKKSEELVAEAHNLCTLLENAIQDTVREQDQSFTALDWSWLQTEEEEHSCLEQAS
With B1, in series [2], the co-precipitated IKKβ relative to wild-type B14 (fold of wild-type B14) is 0.5.

B2: N-terminally His6-tagged wild-type B14 (vaccinia virus strain Western Reserve) (natural protein)
chain: MTANFSTHVFSPQHCGCDRLTSIDDVRQCLTEYIYWSSYAYRNRQCAGQLYSTLLSFRDDAELVFIDIRELVKNMPWDDVKDCAEIIRCYIPDEQKTIREISAIIGLCAYAATYWGGEDHPTSNSLNALFVMLEMLNYVDYNIIFRRMN
For the molecule B2, in “SEC-MALS”, the dissociation constant (Kd) was 20.6 ± 0.9 µM and the “stoichiometry N” value was 2.

Broadly, the Kd is the concentration at which binding is half-saturated. Broadly, the stoichiometry N is a count of units in the complex or per binding partner.
